T1: His6-Fy-1 (Tbck), subunit of the reconstituted FERRY complex (human, UniProt Q8TEA7 1-893)
T1 sequence (looked up): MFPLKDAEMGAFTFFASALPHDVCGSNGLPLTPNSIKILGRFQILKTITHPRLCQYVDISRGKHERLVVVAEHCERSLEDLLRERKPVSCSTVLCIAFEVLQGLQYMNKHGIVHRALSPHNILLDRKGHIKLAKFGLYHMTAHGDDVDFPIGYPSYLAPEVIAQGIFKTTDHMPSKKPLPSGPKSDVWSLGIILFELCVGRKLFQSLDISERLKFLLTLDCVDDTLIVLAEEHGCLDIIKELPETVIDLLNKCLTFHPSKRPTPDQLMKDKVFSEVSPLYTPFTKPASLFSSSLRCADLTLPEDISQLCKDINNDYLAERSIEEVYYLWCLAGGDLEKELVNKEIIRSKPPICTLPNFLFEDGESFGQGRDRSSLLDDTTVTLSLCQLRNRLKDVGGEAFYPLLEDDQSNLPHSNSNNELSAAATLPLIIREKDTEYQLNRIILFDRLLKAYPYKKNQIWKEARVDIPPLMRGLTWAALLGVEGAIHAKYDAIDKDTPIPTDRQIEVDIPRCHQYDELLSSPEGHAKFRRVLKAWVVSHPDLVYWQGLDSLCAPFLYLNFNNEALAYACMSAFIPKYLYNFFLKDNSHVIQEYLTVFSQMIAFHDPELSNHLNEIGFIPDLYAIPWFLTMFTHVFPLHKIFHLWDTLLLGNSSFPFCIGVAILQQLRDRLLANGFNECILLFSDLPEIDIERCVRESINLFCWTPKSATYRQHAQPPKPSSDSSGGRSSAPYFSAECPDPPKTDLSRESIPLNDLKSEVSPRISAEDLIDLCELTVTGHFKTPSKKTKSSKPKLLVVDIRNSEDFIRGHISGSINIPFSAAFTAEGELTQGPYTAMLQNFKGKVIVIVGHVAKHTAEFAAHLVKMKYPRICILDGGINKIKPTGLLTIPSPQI


Biological target: T1, His6-Fy-1 (Tbck), subunit of the …
Experiment: SEC

stoichiometry N | Binder
4 | His6-Fy-5 (Gatd1) (natural protein, human, UniProt Q8NB37 1-220, looked up) MASERLPNRPACLLVASGAAEGVSAQSFLHCFTMASTAFNLQVATPGGKAMEFVDVTESNARWVQDFRLKAYASPAKLESIDGARYHALLIPSCPGALTDLASSGSLARILQHFHSESKPICAVGHGVAALCCATNEDRSWVFDSYSLTGPSVCELVRAPGFARLPLVVEDFVKDSGACFSASEPDAVHVVLDRHLVTGQNASSTVPAVQNLLFLCGSRK
2 | His6-Fy-4 (Cryzl1) (natural protein, human, UniProt O95825 1-349, looked up) MKGLYFQQSSTDEEITFVFQEKEDLPVTEDNFVKLQVKACALSQINTKLLAEMKMKKDLFPVGREIAGIVLDVGSKVSFFQPDDEVVGILPLDSEDPGLCEVVRVHEHYLVHKPEKVTWTEAAGSIRDGVRAYTALHYLSHLSPGKSVLIMDGASAFGTIAIQLAHHRGAKVISTACSLEDKQCLERFRPPIARVIDVSNGKVHVAESCLEETGGLGVDIVLDAGVRLYSKDDEPAVKLQLLPHKHDIITLLGVGGHWVTTEENLQLDPPDSHCLFLKGATLAFLNDEVWNLSNVQQGKYLCILKDVMEKLSTGVFRPQLDEPIPLYEAKVSMEAVQKNQGRKKQVVQF
2 | Fy-2 (Ppp1r21), untagged subunit of the reconstituted FERRY complex (natural protein, human, UniProt Q6ZMI0 1-780, looked up) MASAELQGKYQKLAQEYSKLRAQNQVLKKGVVDEQANSAALKEQLKMKDQSLRKLQQEMDSLTFRNLQLAKRVELLQDELALSEPRGKKNKKSGESSSQLSQEQKSVFDEDLQKKIEENERLHIQFFEADEQHKHVEAELRSRLATLETEAAQHQAVVDGLTRKYMETIEKLQNDKAKLEVKSQTLEKEAKECRLRTEECQLQLKTLHEDLSGRLEESLSIINEKVPFNDTKYSQYNALNVPLHNRRHQLKMRDIAGQALAFVQDLVTALLNFHTYTEQRIQIFPVDSAIDTISPLNQKFSQYLHENASYVRPLEEGMLHLFESITEDTVTVLETTVKLKTFSEHLTSYICFLRKILPYQLKSLEEECESSLCTSALRARNLELSQDMKKMTAVFEKLQTYIALLALPSTEPDGLLRTNYSSVLTNVGAALHGFHDVMKDISKHYSQKAAIEHELPTATQKLITTNDCILSSVVALTNGAGKIASFFSNNLDYFIASLSYGPKAASGFISPLSAECMLQYKKKAAAYMKSLRKPLLESVPYEEALANRRILLSSTESREGLAQQVQQSLEKISKLEQEKEHWMLEAQLAKIKLEKENQRIADKLKNTGSAQLVGLAQENAAVSNTAGQDEATAKAVLEPIQSTSLIGTLTRTSDSEVPDVESREDLIKNHYMARIVELTSQLQLADSKSVHFYAECRALSKRLALAEKSKEALTEEMKLASQNISRLQDELTTTKRSYEDQLSMMSDHLCSMNETLSKQREEIDTLKMSSKGNSKKNKSR
1 | Fy-3 (C12orf4), untagged subunit of the recombinant FERRY and GST-FERRY complexes (natural protein, human, UniProt Q9NQ89 1-552, looked up) MKKNRERFCNREREFVYKFKVGSQCLELRVPLKFPVQENASHLHGRLMLLHSLPCFIEKDLKEALTQFIEEESLSDYDRDAEASLAAVKSGEVDLHQLASTWAKAYAETTLEHARPEEPSWDEDFADVYHDLIHSPASETLLNLEHNYFVSISELIGERDVELKKLRERQGIEMEKVMQELGKSLTDQDVNSLAAQHFESQQDLENKWSNELKQSTAIQKQEYQEWVIKLHQDLKNPNNSSLSEEIKVQPSQFRESVEAIGRIYEEQRKLEESFTIHLGAQLKTMHNLRLLRADMLDFCKHKRNHRSGVKLHRLQTALSLYSTSLCGLVLLVDNRINSYSGIKRDFATVCQECTDFHFPRIEEQLEVVQQVVLYARTQRRSKLKESLDSGNQNGGNDDKTKNAERNYLNVLPGEFYITRHSNLSEIHVAFHLCVDDHVKSGNITARDPAIMGLRNILKVCCTHDITTISIPLLLVHDMSEEMTIPWCLRRAELVFKCVKGFMMEMASWDGGISRTVQFLVPQSISEEMFYQLSNMLPQIFRVSSTLTLTSKH

Biological target: Fy-1 (TBCK);Fy-2 (PPP1R21);Fy-3 (C12orf4);Fy-4 (CRYZL1);Fy-5 (GATD1) (Homo sapiens;Homo sapiens;Homo …, UniProt Q8TEA7;Q6ZMI0;Q9NQ89;O95825;Q8NB37 1-893;1-780;1-552;1-349;1-220, ||||)
Experiment: EMSA

Binder | binding result
mrpl41 5'UTR (ssRNA) RNA: GGGGCUCUUGCUGCGACGCAGCGGUCGGAAGCGGAGCAAGGUCGAGGCCGGGUUGGCGCCGGAGCCGGGGCCGCUUGGAGCUCGUGUGGGGUCUCCGGUCCAGGGCGCGGCGCGGCCGC | no binding
atp5f1b (atp5b) 3'UTR-50A (ssRNA) RNA: GGGGGGGUCUUUGUCCUCUGUACUGUCUCUCUCCUUGCCCCUAACCCAAAAAGCUUCAUUUUUCUGUGUAGGCUGCACAAGAGCCUUGAUUGAAGAUAUAUUCUUUCUGAACAGUAUUUAAGGUUUCCAAUAAAAUGUACACCCCUCAGAAAAAAAAAAAAAAAAAAAAAAAAAAAAAAAAAAAAAAAAAAAAAAAAAAAAGCGGCCGC | no binding
